Data: PMC5321760
One block for each substance: values may come before it.

Columns and labels:
[1] = target: αIIbβ3 integrin (immobilized) (UniProt P08514); assay: ELISA; solid-phase binding: αVβ3 or αIIbβ3 coated on microtiter wells (250 ng per well), blocked with BSA; recalcified plasma treated with PDI-CCCC, PDI-AAAA, ERp57-CCCC or BSA and 0.3 mM DTT for 10 min at 37 °C, stopped with 20 mM NEM, diluted 1:100, 1 h; bound vitronectin detected with rabbit anti-vitronectin and anti-rabbit IgG-HRP
[2] = target: αVβ3 integrin (immobilized) (UniProt P06756); assay: as above
Chain of UniProt P06756 (P06756 31-1048, chain 1 of 2): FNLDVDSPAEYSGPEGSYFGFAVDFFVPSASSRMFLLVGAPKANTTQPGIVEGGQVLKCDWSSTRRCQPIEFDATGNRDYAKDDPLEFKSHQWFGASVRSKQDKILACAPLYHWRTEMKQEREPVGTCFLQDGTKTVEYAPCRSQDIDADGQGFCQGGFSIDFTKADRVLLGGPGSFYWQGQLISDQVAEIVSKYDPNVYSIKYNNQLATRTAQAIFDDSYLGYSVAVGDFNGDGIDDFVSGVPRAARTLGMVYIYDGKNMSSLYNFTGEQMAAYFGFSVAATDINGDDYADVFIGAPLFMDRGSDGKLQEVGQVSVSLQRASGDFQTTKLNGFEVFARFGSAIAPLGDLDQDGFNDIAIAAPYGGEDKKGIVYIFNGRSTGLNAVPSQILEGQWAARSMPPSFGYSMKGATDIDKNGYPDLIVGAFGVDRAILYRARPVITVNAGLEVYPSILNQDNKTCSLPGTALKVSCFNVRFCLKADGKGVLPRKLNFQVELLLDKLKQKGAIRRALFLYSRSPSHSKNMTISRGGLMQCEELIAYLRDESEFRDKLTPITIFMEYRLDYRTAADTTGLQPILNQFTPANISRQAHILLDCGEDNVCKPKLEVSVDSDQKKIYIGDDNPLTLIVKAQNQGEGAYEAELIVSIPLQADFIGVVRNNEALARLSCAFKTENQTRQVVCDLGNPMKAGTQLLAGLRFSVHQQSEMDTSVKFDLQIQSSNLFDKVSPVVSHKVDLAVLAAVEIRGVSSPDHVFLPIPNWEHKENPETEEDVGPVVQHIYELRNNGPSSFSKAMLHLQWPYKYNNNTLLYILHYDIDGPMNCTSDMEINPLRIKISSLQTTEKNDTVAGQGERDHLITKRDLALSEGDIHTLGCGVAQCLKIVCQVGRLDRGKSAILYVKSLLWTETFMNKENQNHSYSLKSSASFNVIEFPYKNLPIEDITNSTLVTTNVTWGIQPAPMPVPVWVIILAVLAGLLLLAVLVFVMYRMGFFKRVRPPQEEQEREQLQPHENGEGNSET
Chain of UniProt P06756 (P05106 27-718, chain 2 of 2, further chain): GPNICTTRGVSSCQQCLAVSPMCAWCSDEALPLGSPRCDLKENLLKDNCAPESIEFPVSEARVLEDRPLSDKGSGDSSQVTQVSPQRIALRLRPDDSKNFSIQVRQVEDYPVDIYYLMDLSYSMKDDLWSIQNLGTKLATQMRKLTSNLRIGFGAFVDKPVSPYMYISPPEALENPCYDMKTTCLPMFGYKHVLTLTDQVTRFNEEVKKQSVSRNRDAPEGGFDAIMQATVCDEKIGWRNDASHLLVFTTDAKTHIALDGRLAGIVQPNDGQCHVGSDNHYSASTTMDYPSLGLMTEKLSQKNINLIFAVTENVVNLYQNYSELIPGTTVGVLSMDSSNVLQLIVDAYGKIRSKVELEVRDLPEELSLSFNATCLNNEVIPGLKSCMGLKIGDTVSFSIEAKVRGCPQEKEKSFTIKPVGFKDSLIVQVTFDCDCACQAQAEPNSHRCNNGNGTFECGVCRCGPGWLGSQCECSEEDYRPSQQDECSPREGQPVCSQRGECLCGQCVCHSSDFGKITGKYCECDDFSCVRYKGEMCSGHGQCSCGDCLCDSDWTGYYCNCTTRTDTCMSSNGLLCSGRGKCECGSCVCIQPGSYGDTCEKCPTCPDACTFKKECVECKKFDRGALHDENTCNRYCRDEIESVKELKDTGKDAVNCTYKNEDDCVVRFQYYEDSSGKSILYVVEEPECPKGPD

[3] = target: plasma vitronectin (human (endogenous in plasma; the donor is not stated, anti-human vitronectin antibodies were used))
PDI–CACA (human) = PDI–CACA (human) (UniProt P07237); assay: pull-down; kinetic trapping: DTT-reduced FLAG-/SBP-tagged PDI or ERp57 variant (500 ug) added to 5 ml recalcified platelet-rich plasma with GPRP, collagen and thrombin, 3 min at 23°, stopped with hirudin and 20 mM NEM; streptavidin-agarose, washes with 500 mM NaCl and 1.5% Triton X-100, eluted with biotin; non-reducing and reducing 1D or 2D SDS-PAGE, Western blot for FLAG and vitronectin; the complex is a mixed disulfide

fold increase in bound vitronectin at the highest PDI concentration [1]: > 3 fold | fold increase in bound vitronectin at the highest PDI concentration (15 μM) [2]: 4 fold
Substance: PDI-reduced plasma vitronectin (natural protein)

PEG5000-maleimide incorporated into plasma vitronectin after reduction by the enzyme in NEM-pretreated platelet-poor plasma (0 to 5 min at 1 uM; 0.25 to 2.5 uM for 5 min), gel shift on Western blot (moles per mole of vitronectin) [3]: 3.6
Substance: PDI–CCCC (wild type protein disulfide isomerase) (from UniProt P07237 18-508) (enzyme)

stoichiometry N (PDI–CACA (human)): 1
Substance: plasma vitronectin (natural protein)
